In article PMC5270756 one finds Km data, which are given here for one protein.

Substrate in the data set: c1cc2ccc3cccc4ccc(c1)c2c34
Briefly: oxidation kinetics. The following applies: heme; NADPH. It is filed as biochemical, Homo sapiens.

B1: P450 1A1 (Homo sapiens) (protein)
chain: MLFPISMSATEFLLASVIFCLVFWVIRASRPQVPKGLKNPPGPWGWPLIGHMLTLGKNPHLALSRMSQQYGDVLQIRIGSTPVVVLSGLDTIRQALVRQGDDFKGRPDLYTFTLISNGQSMSFSPDSGPVWAARRRLAQNGLKSFSIASDPASSTSCYLEEHVSKEAEVLISTLQELMAGPGHFNPYRYVVVSVTNVICAICFGRRYDHNHQELLSLVNLNNNFGEVVGSGNPADFIPILRYLPNPSLNAFKDLNEKFYSFMQKMVKEHYKTFEKGHIRDITDSLIEHCQEKQLDENANVQLSDEKIINIVLDLFGAGFDTVTTAISWSLMYLVMNPRVQRKIQEELDTVIGRSRRPRLSDRSHLPYMEAFILETFRHSSFVPFTIPHSTTRDTSLKGFYIPKGRCVFVNQWQINHDQKLWVNPSEFLPERFLTPDGAIDKVLSEKVIIFGMGKRKCIGETIARWEVFLFLAILLQRVEFSVPLGVKVDMTPIYGLTMKHACCEHFQMQLRS
The term Km denotes the concentration of substrate that gives half-maximal velocity. Consider B1, for which the Km amounted to 1.7 µM.
